These results are taken from patent publication US20080058272A1 (published 2008).

In assay [1] the target is T1, HLA-A2 (human, UniProt P04439 25-302 at identity 0.94)).
T1 chain: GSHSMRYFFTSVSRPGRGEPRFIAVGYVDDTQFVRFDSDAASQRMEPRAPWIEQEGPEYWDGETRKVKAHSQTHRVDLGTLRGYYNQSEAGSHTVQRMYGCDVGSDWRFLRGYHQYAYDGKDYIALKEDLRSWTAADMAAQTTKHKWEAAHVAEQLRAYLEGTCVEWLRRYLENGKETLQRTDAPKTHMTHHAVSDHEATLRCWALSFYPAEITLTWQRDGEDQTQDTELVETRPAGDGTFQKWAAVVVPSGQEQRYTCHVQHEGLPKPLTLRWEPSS
Kind of assay: competitive binding assay (flow cytometry).

For assay [2], the target named is T1, HLA-A2. Put plainly: competitive binding assay (flow cytometry). (A flow cytometer gives signals particle by particle.)

Like-named read-outs stand apart in the source and are kept apart here.

B1: FAPα^463-471 (peptide)
peptide: ALVCYGPGI
Broadly, the IC50 is the point on the concentration scale where inhibition reaches its midpoint. Take B1: the IC50 in assay [1] and in assay [2] was 4.7 µM in each case.

B2: FAPα^113-121 (peptide)
peptide: YLESDYSKL
Molecule B2 came in with an IC50 in assay [1] of 8 µM.

B3: FAPα^104-112 (peptide)
peptide: GLSPDRQFV
The molecule B3 displayed an IC50 in assay [1] of 9.1 µM.

B4: FAPα^584-592 (peptide)
peptide: LLYAVYRKL
For the molecule B4, the IC50 in assay [1] is 13.3 µM.

B5: FAPα^560-568 (peptide)
peptide: YLASKEGMV
Consider B5, for which the IC50 in assay [1] was found to be 15.3 µM.

B6: FAPα^486-494 (peptide)
peptide: KILEENKEL
For B6, the IC50 in assay [1] and in assay [2] was 33.8 µM each time.

B7: FAPα^639-647 (peptide)
peptide: GLFKCGIAV
Molecule B7 came in with an IC50 in assay [1] of 5.6 µM.
